Target: HLA-A3 (human)
Experiment: competitive MHC binding assay against a reference peptide

B1: E255K-B255-263 mutant BCR-ABL peptide (KVYEGVWKK) (peptide)
peptide: KVYEGVWKK
notes: Synthetic 9-mer; also called E255K-B (MUT) peptide; BCR-ABL peptide harboring the E255K mutation
IC50: 17 nM
